Results taken from patent publication US20130017251A1 (J DAVID GLADSTONE INSTITUTES, published 2013).

Legend:
[1] = molecular target: T1, N-terminal 22-kDa fragment of apoE3 (aa 1-191) (human, UniProt P02649 19-209); experiment: ELISA on coated fragment
T1 construct: Range 1-191 is in apoE (299-residue) numbering
Method: (§1) ApoE ELISA. […] Wells were washed several times with wash buffer (PBS containing 0.1% bovine serum albumin (BSA)) and blocked for 1 h with 4% BSA in PBS. All incubations were performed at room temperature. […] Secondary antibodies against goat or mouse IgG labeled with horse radish peroxidase (HRP) diluted in blocking buffer were added to the wells after several washes and incubated for 1 h. […] substrate (Thermo-Pierce) was used to visualize the amount of bound secondary antibody at 450 nm on a SpectraMax190 plate reader (Molecular Devices) using Softmax Pro software for data collection.
(§2) A, A schematic of different functional domains of human apoE. […] All experiments were performed in triplicate. Values are mean±SD. OD, optical density.

[2] = molecular target: T2, N-terminal 22-kDa fragment of apoE4 (aa 1-191) (human, UniProt P02649 19-209); experiment: ELISA on coated fragment
T2 construct: Range 1-191 is in apoE (299-residue) numbering
T2 chain: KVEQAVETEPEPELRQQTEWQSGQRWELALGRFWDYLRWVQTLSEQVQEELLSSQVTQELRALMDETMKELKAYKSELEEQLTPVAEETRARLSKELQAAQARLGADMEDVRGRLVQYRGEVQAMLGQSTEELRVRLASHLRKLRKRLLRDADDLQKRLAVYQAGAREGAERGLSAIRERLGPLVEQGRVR
Method: as §1, §2

apoE(1-260) = molecular target: T3, apoE(1-260) (human, UniProt P02649 19-278); experiment: western blot, transfected Neuro-2a cells
T3 construct: Expressed in transiently transfected Neuro-2a cells; also called apoE4(1-260)
Method: (§3) Cell culture, transfection, and western blotting. Mouse neuroblastoma (Neuro-2a) and astrocytic (C6) cells (American Type Culture Collection, Manassas, Va.) maintained at 37° C. in MEM containing 10% fetal bovine serum (FBS) were transiently transfected with different apoE cDNA constructs using Lipofectamine 2000 (Invitrogen) (Huang et al., 2001). Neuro-2a cells expressing different forms of apoE were collected in a low-detergent lysis buffer, separated by sodium dodecyl sulfate-polyacrylamide gel electrophoresis (SDS-PAGE), and immunoblotted for apoE with polyclonal and monoclonal antibodies, as described (Huang et al., 2001).

apoE(1-240) = molecular target: T4, apoE(1-240) (human, UniProt P02649 19-258); experiment: western blot, transfected Neuro-2a cells
T4 construct: If 1-244 is right the range is 19-262
Method: as §3

[3] = molecular target: T5, green fluorescent protein-apoE(231-272) (human, UniProt P02649 249-290, not fully specified); experiment: western blot, transfected Neuro-2a cells
T5 construct: Expressed in transiently transfected Neuro-2a cells; not shown: green fluorescent protein tag
T5 chain: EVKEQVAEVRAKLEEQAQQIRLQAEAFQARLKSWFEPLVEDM
Method: as §3

[4] = molecular target: T6, recombinant human apolipoprotein E4, full length (human, UniProt P02649 19-317); experiment: ELISA; apoE coated (50 ng/well), 3H1 as primary antibody
T6 construct: Recombinant protein in ELISA; expressed in transfected Neuro-2a or C6 cells for western blot and cell staining; also called apoE4; apoE4(1-299)
Method: Secondary antibodies against goat or mouse IgG labeled with horse radish peroxidase (HRP) diluted in blocking buffer were added to the wells after several washes and incubated for 1 h. […] substrate (Thermo-Pierce) was used to visualize the amount of bound secondary antibody at 450 nm on a SpectraMax190 plate reader (Molecular Devices) using Softmax Pro software for data collection.
as §2

[5] = molecular target: T7, DMPC-lipidated apoE3 (DMPC:apoE=4:1) (human, UniProt P02649 19-317); experiment: ELISA; lipid-free or DMPC-lipidated apoE coated (50 ng protein/well)
T7 construct: Same protein as m3, in complex with dimyristoyl phosphatidylcholine (not covalent)
Method: (§4) Preparation of apoE and DMPC complex. Dimyristoyl phosphatidylcholine (DMPC) (Avanti Polar Lipids, Alabaster, Ala.) was used at a concentration of 20 mg/ml dissolved into phosphate-buffered saline (PBS). DMPC solution was sonicated for 6 min per cycle until the solution became clear and centrifuged at 14,000 rpm for 2 min to pellet debris. ApoE was then added to obtain various final stock concentrations and allowed to incubate at 23.7° C. overnight before use in enzyme-linked immunosorbent assay (ELISA) experiments.
as §1
(§5) All experiments were performed in triplicate. Values are mean±SD. OD, optical density.

[6] = molecular target: T8, DMPC-lipidated apoE4 (DMPC:apoE=4:1) (human, UniProt P02649 19-317); experiment: as above
T8 construct: Same protein as m2, in complex with dimyristoyl phosphatidylcholine (not covalent)
Method: as §4, §1, §5

[7] = molecular target: T6, recombinant human apolipoprotein E4, …; experiment: inhibition ELISA; apoE preincubated with 3H1 IgG, added to Aβ1-42-coated wells
Method: ApoE and Aβ binding assay. Aβ₁₋₄₂ (Biopeptides) was used to coat the surface of a 96-well plate at 330 ng/well and ELISA was performed essentially as described above. […] Subsequent detection of apoE bound with Aβ was performed with polyclonal anti-apoE, as stated above.
FIGS. 6A and 6B. […] After washing, the binding of apoE to Aβ was detected with polyclonal anti-apoE in an ELISA. […] After incubation, the mixture was added to Aβ₁₋₄₂-coated wells, and the binding of apoE to Aβ was detected with polyclonal anti-apoE after washing. All experiments were performed in triplicate. Values are mean±SD. OD, optical density.

binding result [1]: no binding
binding result [2]: no binding
binding result (apoE(1-260)): no binding
binding result (apoE(1-240)): no binding
binding result [3]: no binding
fold reactivity against apoE3 [4]: 9 fold
fold increase of reactivity against lipid-free apoE3 [5]: ~120 fold
fold increase of reactivity against lipid-free apoE4 [6]: ~20 fold
percent lower IC50 than for apoE3 [7]: ~90%
B1: apoE-specific monoclonal antibody 3H1 (antibody, V domains shown)
VH: EVQLVESGGGLVKPGGSLKLSCAASGFTFSSYAMSWVRQTPEKRLEWVATISSGGSYTYYPDSVKGRFTISRDNAKNTLYLQMSSLRSEDTAMYYCARQFYYYGGSYDYFDYWGQGTTLTVS
VL: DIVLTQSPATLSVTPGDSVSLACRASQSISNNLHWYQQKSHESPRLLIKYAYQSISGIPSRFSGSGSGTDFTLSINSVETEDFGMYFCQQSNSWPLTFGVGTKLEIKR
notes: Mouse monoclonal IgG (detected with anti-mouse IgG; used as purified 3H1 IgG); also called 3H1 IgG; purified 3H1 IgG
